According to patent US20240132589A1 (ONCORESPONSE, published 2024):

How the values were obtained:
[1] = molecular target: T1, Human LILRA1 on transiently transfected HEK293-6E cells (human, UniProt O75019 17-489); assay: flow cytometry, transiently transfected HEK293-6E cells
T1 construct: whole, on cells; also called hLILRA1
Method in brief: (§1)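 Antibody binding measured by flow cytometry on HEK293-6E cells transiently transfected with individual human LILRA or LILRB plasmids. Murine anti-LILRA/LILRB antibodies with isotype controls confirmed target expression, detected with AF647 goat anti-mouse F(ab′)₂.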

[2] = molecular target: T2, Human LILRA2 on transiently transfected HEK293-6E cells (human, UniProt Q8N149 24-483); assay: as above
T2 construct: whole, on cells; also called hLILRA2
Method in brief: as §1

[3] = molecular target: T3, Human LILRA4 on transiently transfected HEK293-6E cells (human, UniProt P59901 24-499); assay: as above
T3 construct: whole, on cells; also called hLILRA4
Method in brief: as §1

[4] = molecular target: T4, Human LILRA5 on transiently transfected HEK293-6E cells (human, UniProt A6NI73 42-299); assay: as above
T4 construct: whole, on cells; also called hLILRA5
Method in brief: as §1

[5] = molecular target: T5, Human LILRA6 on transiently transfected HEK293-6E cells (human, UniProt Q6PI73 24-481); assay: as above
T5 construct: whole, on cells; also called hLILRA6
Method in brief: as §1

[6] = molecular target: T6, Human LILRB1 on transiently transfected HEK293-6E cells (human, UniProt Q8NHL6 24-650); assay: as above
T6 construct: whole, on cells; also called hLILRB1
Method in brief: as §1

[7] = molecular target: T7, Human LILRB3 on transiently transfected HEK293-6E cells (human, UniProt O75022 24-631); assay: as above
T7 construct: whole, on cells; also called hLILRB3
Method in brief: as §1

[8] = molecular target: T8, Human LILRB4 on transiently transfected HEK293-6E cells (human, UniProt Q8NHJ6 22-448); assay: as above
T8 construct: whole, on cells; also called hLILRB4
Method in brief: as §1

[9] = molecular target: T9, Human LILRB5 on transiently transfected HEK293-6E cells (human, UniProt O75023 24-590); assay: as above
T9 construct: whole, on cells; also called hLILRB5
Method in brief: as §1

[10] = molecular target: T10, LILRB2-Fc protein (human, UniProt Q8N423 22-460, limits assumed); assay: blocking ELISA: LILRB2-Fc pre-incubated with antibody titration, binding to coated monomer HLA-G
T10 construct: also called human LILRB2-Fc; not shown: Fc part
Experimental: Tumor-associated HLA-G is an HLA Class I ligand for LILRB2. Binding of HLA-G to LILRB2 induces an immune suppressive signal in LILRB2 expressing myeloid cells. To determine if the anti-LILRB2 antibodies block the HLA-G-LILRB2 interaction and prevent the induction of an inhibitory signal, blocking ELISA assays in a dose titration were performed. 384-well plates were coated with monomer HLA-G (Fred Hutchinson Cancer Research Center, No. bHLA-G) at a concentration of 5 μg/mL, diluted in PBS, then plates were incubated at RT for 1 hour. Plates were rinsed with Wash Buffer three times, then blocked with Blocking Buffer A for 30 minutes at RT. During blocking incubation step, LILRB2-Fc protein and antibody titrations were prepared in Blocking Buffer A. LILRB2-Fc protein was then incubated with antibody titrations for 30 minutes at RT to allow for binding prior to addition onto plate. Plates were rinsed three times with Wash Buffer, then 25 μL of protein/antibody mixture was added per well and incubated for 1 hour at RT. Following antibody incubation, plates were washed three times with Wash Buffer. Anti-human IgG Fc-HRP secondary antibody was diluted and added at 25 μL/well. Plates were incubated in the dark for 1 hour at RT. Following secondary antibody incubation, plates were washed four times with Wash Buffer. […] Absorbance was read at 450 nm using the Envision. […]

T4 sequence (A6NI73 42-299): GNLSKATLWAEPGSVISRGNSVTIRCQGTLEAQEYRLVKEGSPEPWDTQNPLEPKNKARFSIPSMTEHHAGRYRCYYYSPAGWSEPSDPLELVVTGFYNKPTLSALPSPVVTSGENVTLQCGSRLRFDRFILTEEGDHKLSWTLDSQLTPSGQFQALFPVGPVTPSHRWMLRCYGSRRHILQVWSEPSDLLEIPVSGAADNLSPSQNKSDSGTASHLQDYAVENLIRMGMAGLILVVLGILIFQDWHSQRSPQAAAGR
T9 sequence (O75023 24-590): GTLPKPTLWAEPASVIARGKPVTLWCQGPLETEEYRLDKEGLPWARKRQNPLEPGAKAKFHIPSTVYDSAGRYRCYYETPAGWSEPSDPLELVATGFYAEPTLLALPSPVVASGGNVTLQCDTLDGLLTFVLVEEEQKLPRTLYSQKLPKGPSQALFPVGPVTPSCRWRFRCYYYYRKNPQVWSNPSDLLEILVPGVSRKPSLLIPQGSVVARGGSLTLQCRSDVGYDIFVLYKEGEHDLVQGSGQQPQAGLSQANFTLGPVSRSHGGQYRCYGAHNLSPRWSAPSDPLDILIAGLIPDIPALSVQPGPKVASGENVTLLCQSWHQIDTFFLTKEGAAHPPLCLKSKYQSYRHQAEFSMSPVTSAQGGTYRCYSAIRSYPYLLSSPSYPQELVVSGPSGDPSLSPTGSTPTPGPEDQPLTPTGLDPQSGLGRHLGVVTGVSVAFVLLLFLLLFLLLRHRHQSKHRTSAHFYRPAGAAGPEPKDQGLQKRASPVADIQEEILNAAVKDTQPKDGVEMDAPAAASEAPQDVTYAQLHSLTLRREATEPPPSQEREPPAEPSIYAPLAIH
T2 sequence (Q8N149 24-483): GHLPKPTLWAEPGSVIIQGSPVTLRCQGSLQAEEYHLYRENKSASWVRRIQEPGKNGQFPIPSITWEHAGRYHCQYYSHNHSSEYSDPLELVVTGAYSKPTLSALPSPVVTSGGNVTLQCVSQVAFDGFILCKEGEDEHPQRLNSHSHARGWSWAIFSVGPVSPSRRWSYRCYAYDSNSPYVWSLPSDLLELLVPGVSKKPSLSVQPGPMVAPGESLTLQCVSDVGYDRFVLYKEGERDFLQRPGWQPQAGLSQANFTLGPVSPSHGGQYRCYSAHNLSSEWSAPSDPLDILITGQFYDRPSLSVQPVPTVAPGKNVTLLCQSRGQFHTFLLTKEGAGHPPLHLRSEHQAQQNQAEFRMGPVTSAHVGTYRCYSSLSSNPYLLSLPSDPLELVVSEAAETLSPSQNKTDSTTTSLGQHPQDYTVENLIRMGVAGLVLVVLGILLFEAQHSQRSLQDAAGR
T5 sequence (Q6PI73 24-481): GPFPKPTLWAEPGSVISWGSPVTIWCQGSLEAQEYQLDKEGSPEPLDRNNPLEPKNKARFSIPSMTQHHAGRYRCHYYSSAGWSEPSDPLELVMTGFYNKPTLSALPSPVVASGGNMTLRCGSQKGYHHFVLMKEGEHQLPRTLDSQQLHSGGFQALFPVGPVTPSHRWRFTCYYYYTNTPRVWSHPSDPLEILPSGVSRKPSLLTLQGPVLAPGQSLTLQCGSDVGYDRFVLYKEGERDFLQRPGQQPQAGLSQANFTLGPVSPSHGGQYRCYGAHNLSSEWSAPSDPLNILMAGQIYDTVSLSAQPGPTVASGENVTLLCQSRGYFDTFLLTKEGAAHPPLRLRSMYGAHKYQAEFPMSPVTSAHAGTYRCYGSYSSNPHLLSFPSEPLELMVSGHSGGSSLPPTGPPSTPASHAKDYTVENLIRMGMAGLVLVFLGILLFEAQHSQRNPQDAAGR
T1 sequence (O75019 17-489): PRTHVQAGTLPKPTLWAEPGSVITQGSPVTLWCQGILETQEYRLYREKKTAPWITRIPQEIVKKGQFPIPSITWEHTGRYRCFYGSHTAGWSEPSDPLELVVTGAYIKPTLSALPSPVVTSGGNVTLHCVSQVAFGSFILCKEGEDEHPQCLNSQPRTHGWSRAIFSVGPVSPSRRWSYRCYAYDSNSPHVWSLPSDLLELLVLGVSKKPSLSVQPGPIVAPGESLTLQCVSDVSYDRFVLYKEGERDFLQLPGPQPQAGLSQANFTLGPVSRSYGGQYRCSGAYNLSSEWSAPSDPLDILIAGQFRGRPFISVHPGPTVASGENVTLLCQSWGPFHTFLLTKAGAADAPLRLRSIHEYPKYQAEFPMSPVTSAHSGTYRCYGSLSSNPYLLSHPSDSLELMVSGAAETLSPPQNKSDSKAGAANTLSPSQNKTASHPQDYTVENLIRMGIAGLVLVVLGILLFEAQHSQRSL
T3 sequence (P59901 24-499): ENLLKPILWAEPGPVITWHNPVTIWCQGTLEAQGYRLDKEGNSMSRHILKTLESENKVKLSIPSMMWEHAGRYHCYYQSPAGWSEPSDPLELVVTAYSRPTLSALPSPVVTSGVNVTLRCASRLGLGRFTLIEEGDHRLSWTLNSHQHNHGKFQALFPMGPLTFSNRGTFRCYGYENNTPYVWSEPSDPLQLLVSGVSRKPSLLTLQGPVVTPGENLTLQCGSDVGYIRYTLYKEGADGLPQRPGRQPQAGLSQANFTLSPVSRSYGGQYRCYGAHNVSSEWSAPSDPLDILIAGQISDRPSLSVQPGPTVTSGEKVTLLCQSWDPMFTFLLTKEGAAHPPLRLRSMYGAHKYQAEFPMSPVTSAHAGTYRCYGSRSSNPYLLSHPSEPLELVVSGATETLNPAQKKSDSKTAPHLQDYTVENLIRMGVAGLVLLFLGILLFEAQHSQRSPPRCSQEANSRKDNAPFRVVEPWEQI
T6 sequence (Q8NHL6 24-650): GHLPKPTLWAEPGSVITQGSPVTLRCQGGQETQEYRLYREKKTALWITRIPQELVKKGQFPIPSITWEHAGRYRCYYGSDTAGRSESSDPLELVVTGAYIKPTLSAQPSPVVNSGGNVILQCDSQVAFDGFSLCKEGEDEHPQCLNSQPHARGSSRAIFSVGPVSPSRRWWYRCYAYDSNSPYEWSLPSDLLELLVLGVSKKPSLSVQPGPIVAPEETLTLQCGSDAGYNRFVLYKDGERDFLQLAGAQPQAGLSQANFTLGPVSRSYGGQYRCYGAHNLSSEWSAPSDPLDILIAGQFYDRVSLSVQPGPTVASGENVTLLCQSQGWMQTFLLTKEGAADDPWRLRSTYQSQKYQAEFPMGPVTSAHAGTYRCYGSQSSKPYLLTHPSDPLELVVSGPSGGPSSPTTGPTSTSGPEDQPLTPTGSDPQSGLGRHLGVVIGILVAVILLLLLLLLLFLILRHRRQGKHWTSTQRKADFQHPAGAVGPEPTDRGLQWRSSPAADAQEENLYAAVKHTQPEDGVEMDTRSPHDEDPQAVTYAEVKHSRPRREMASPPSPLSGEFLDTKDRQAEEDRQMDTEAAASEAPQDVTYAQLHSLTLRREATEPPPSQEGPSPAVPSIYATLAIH
T10 sequence (Q8N423 22-460 limits assumed): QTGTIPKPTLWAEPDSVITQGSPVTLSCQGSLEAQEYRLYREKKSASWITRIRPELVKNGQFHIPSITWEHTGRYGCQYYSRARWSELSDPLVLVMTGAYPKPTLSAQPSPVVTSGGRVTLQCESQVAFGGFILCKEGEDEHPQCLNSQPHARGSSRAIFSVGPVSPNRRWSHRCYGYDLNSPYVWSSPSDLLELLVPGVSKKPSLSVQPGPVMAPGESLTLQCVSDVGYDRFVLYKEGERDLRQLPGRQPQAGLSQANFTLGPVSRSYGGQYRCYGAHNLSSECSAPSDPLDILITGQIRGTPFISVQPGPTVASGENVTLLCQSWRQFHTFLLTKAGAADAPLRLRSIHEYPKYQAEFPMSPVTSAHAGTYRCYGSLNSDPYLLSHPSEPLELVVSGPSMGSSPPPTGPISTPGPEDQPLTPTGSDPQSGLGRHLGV

| Bmax (MFI) [1] | Bmax (MFI) [2] | BMAX [gMFI] [3] | Bmax (MFI) [4] | Bmax (MFI) [5] | Bmax (MFI) [6] | Bmax (MFI) [7] | Bmax (MFI) [8] | Bmax (MFI) [9] | IC50 [10] | Binder |
| --- | --- | --- | --- | --- | --- | --- | --- | --- | --- | --- |
| 837 MFI | 40.4 MFI | 104 gMFI | 124 MFI | 211 MFI | 41.9 MFI | 163 MFI | 41.4 MFI | 147 MFI | – | B2A-IgG1 (antibody, Rabbit variable regions on human IgG1 / kappa constant regions; AF647-conjugated in some flow assays; also called B2A-IgG1 chimera; anti-LILRB2 B2A-IgG1) heavy: not shown light: DVVMTQTPSSVSAALGGTVTIKCQASQSIGSNLAWYQLKPGQRPKLLIYAAATLASGGSSRFKGSGSGTDFTLTISDLECADAATYYCQSYVSGSSDVAFGGGTEVVVKRTVAAPSVFIFPPSDEQLKSGTASVVCLLNNFYPREAKVQWKVDNALQSGNSQESVTEQDSKDSTYSLSSTLTLSKADYEKHKVYACEVTHQGLSSPVTKSFNRGEC |
| – | – | – | – | – | – | – | – | – | 0.066 µg/mL | B2A-IgG4 (antibody, Rabbit variable regions on human IgG4 / kappa constant regions; also called B2A-IgG4 chimera; Parent B2A-IgG4) heavy: not shown light: DVVMTQTPSSVSAALGGTVTIKCQASQSIGSNLAWYQLKPGQRPKLLIYAAATLASGGSSRFKGSGSGTDFTLTISDLECADAATYYCQSYVSGSSDVAFGGGTEVVVKRTVAAPSVFIFPPSDEQLKSGTASVVCLLNNFYPREAKVQWKVDNALQSGNSQESVTEQDSKDSTYSLSSTLTLSKADYEKHKVYACEVTHQGLSSPVTKSFNRGEC |
| 783 MFI | 37.7 MFI | 112 gMFI | 129 MFI | 214 MFI | 41.4 MFI | 154 MFI | 40.3 MFI | 138 MFI | – | B2H1-55 (antibody, V domains shown, Humanized variant, human IgG1 / kappa; also called humanized variant B2H1-55; humanized LILRB2 antibody B2H1-55) VH: EVQLLESGGGLVQPGTSLTLSCAASGFSLSTYAMSWVRQAPGKGLEWIGWIYNDGSTYYAAWAKGRFTISKDTSKTTLYLQITSLRAEDTATYFCAREGDYIGYFNIWGQGTLVTVSS VL: DVVMTQTPSSVSAALGGTVTIKCQASQSIGSNLAWYQLKPGQRPKLLIYAAATLASGGSSRFKGSGSGTDFTLTISSLEPADAATYYCQSYVSGSSDVAFGGGTEVVVK |
